Experimental data reported in patent US20120122107A1 (AARHUS UNIVERSITET, published 2012).

Key:
BSA = biological target: T1, BSA (UniProt P02769 25-607); assay: SPR (BIAcore 3000), BSA-coated surface
T1 construct: also called BSA-coated surface
From the text: Using SPR we determined the strength of the interaction between MAp44 and MBL, and compared it to that of MASP-3 and MBL. The purity of the rMBL has been reported before and the rMAp44 and rMASP-3 preparations were deemed pure by silver staining of SDS-PAGE gels (FIG. 4A). MBL was coupled to SPR chips at two different densities. An SPR chip, activated and blocked, was used for subtraction of the bulk refractive index background. A BSA-coated surface served as an extra background control, which gave no higher signal than the blank surface for both MASP-3 and MAp44. […] The measurements at the other coupling density of MBL were in agreement for both MASP-3 and MAp44. The calculated KDs were similar to the 0.8 nM reported for the binding of MASP-2 to MBL.
The SPR experiments were similar to those reported (7, 8). Using a BIAcore 3000 instrument (GE Healthcare®), binding of either rMASP-3 or rMAp44 was measured on 10940 RU of rMBL immobilized on a CM5 sensor chip (30 μg rMBL/ml used for derivatization), at a flow rate of 5 μl/min. Equivalent volumes of rMASP-3 and rMAp44 were injected at concentrations from 1 nM to 30 nM. Data were analyzed by global fitting to a 1:1 Langmuir binding model for several concentrations simultaneously using the BIAevaluation 4.1 software (GE Healthcare®).

[1] = biological target: T2, recombinant mannan-binding lectin (UniProt P11226 21-248); assay: affinity chromatography on rMBL-coupled beads
T2 construct: Oligomeric collectin; also called rMBL; MBL
T2 sequence (P11226 21-248 limits assumed): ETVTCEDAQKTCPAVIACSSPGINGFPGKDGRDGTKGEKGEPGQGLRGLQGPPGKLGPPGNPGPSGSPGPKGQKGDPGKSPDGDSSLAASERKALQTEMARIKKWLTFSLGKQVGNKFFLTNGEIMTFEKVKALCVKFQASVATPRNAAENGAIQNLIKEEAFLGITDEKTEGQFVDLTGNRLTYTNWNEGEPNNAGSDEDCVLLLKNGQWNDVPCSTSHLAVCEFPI

T1 sequence (P02769 25-607 limits assumed): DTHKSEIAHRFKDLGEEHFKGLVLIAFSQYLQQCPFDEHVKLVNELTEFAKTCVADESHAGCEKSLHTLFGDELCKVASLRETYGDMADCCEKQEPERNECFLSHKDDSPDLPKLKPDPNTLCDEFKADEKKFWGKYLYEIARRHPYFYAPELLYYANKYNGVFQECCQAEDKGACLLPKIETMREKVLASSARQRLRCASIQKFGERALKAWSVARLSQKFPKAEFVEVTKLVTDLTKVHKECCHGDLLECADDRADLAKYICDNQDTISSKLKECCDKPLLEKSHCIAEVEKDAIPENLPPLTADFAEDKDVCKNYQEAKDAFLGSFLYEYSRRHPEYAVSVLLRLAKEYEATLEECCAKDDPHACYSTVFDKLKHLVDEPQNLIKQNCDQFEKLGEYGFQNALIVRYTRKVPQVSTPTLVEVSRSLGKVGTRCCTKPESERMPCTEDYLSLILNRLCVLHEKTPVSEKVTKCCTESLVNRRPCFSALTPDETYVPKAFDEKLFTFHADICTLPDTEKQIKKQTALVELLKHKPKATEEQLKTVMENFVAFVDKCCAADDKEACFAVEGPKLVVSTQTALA

B1: recombinant MAp44 (mannan-binding lectin-associated protein of 44 kDa) (other)
chain: HTVELNNMFGQIQSPGYPDSYPSDSEVTWNITVPDGFRIKLYFMHFNLESSYLCEYDYVKVETEDQVLATFCGRETTDTEQTPGQEVVLSPGSFMSITFRSDFSNEERFTGFDAHYMAVDVDECKEREDEELSCDHYCHNYIGGYYCSCRFGYILHTDNRTCRVECSDNLFTQRTGVITSPDFPNPYPKSSECLYTIELEEGFMVNLQFEDIFDIEDHPEVPCPYDYIKIKVGPKVLGPFCGEKAPEPISTQSHSVLILFHSDNSGENRGWRLSYRAAGNECPELQPPVHGKIEPSQAKYFFKDQVLVSCDTGYKVLKDNVEMDTFQIECLKDGTWSNKIPTCKKNEIDLESELKSEQVTE
notes: Made by transient expression of the MAp44 cDNA (imaGenes clone IRAKp961F1682Q) in 293F cells and purified on rMBL-coupled beads; also called rMAp44; rMAP44
binding result (BSA): no binding

B2: recombinant MAp19 (other, UniProt O00187-2 16-185, looked up)
chain: TPLGPKWPEPVFGRLASPGFPGEYANDQERRWTLTAPPGYRLRLYFTHFDLELSHLCEYDFVKLSSGAKVLATLCGQESTDTERAPGKDTFYSLGSSLDITFRSDYSNEKPFTGFEAFYAAEDIDECQVAPGEAPTCDHHCHNHLGGFYCSCRAGYVLHRNKRTCSEQSL
notes: also called rMAp19; rMAP19
binding result [1]: binds
